Measurements as given in patent publication US20250032605A1 (GENERAL HOSPITAL, published 2025).
Where two headings read alike, the source gives them in different places.

Experiments:
Assay in all cases: BLI with recombinant Fabs, drawn table of KD (µM)
[1] = molecular target: T1, SARS-2 RBD (wild-type SARS-CoV-2 receptor binding domain, monomer) (SARS-CoV-2, UniProt P0DTC2 319-529)
[2] = molecular target: T2, SARS-1 RBD (SARS-CoV receptor binding domain, monomer) (SARS-CoV (SARS-1), UniProt P59594 306-515)
RaTG13 [3] = molecular target: RaTG13
[4] = molecular target: T3, WIV1 RBD (WIV1-CoV receptor binding domain, monomer) (WIV1-CoV)
SHC014 [5] = molecular target: SHC014
[6] = molecular target: T1, SARS-2 RBD (wild-type SARS-CoV-2 …); remark: listed apart in the source
[7] = molecular target: T2, SARS-1 RBD (SARS-CoV receptor binding …); remark: listed apart in the source
RaTG13 [8] = molecular target: RaTG13; remark: listed apart in the source
[9] = molecular target: T3, WIV1 RBD (WIV1-CoV receptor binding …); remark: listed apart in the source
SHC014 [10] = molecular target: SHC014; remark: listed apart in the source

B1: Ab19 Fab (Fab, V domains shown)
VH: QVQLQQSGAELARPGASVKLSCKASGYPFTSYGINWVKQRTGQGLEWIGEIYPRIGNTYYNEKFKGKATLTADKSSSTAYMEFRSLTSEDSAVYFCARSWNSNYGEYYFDYWGQGTTLTVS
VL: DIVMTQSHKFMSTSIGDRVSITCKASHDVSTAVAWYQQKPGQSPKLLIYWASTRHTGVPDRFTGSGSGTDYTLTIRSVQAEDLALYYCQQHYSTPYTFGGGTKLEIK
In the case of B1, the Kd [1] is reported as 2000 nM, the Kd [2] is reported as greater than 100000 nM and the Kd (RaTG13 [3]) is reported as greater than 100000 nM. For the same binder, the Kd [4] was greater than 100000 nM, the Kd (SHC014 [5]) was greater than 100000 nM and the Kd [6] was 2000 nM. For the same binder, the Kd [7] was greater than 100000 nM, the Kd (RaTG13 [8]) was greater than 100000 nM and the Kd [9] was greater than 100000 nM. The Kd (SHC014 [10]) was greater than 100000 nM.

B2: Ab20 Fab (Fab, V domains shown)
VH: EVQLQQSGPELVKPGASVKISCKASGFSFTGYSMNWMKQSPEKSLEWIGEINPTTGGTTYNQKFKAKATLTVDKSSSTAYIQLKSLTSEDSAVYYCARGRADYWGQGTTLTVSS
VL: DIVLTQSPASLAVSLGQRATISCRASESVEYYGTGLVQWFQQKPGQPPKLLIYAASNVESGVPARFSGSGSGTDFSLNIHSVEEDDIAMYFCHQSRKLPWTFGGGTKLEIK
For B2, the Kd [1] was 30 nM, the Kd [2] was greater than 100000 nM and the Kd (RaTG13 [3]) was greater than 100000 nM. For the same binder, the Kd [4] was greater than 100000 nM, the Kd (SHC014 [5]) was greater than 100000 nM and the Kd [7] was greater than 100000 nM. The Kd (RaTG13 [8]) was greater than 100000 nM, the Kd [9] was greater than 100000 nM and the Kd (SHC014 [10]) was greater than 100000 nM.

B3: Ab15 Fab (Fab, V domains shown)
VH: EVQLQQSGPELVKPGASVKISCKASGYSFTGYYMNWVKQSPEKSLEWIGEINPNFGGTTYNQKFKAKATLTVDKSSSTAYMQLKSLTSEDSAVYYCARYYGNLYAMDYWGQGTSVTVS
VL: DILMTQSPSSMSVSLGDTVSITCHASQGISSNIGWLQQKPGKSFKGLIYHGTNLEDGVPSRFSGSGSGAAYSLTISSLESEDFADYYCVQYTHFPYTFGGGTKLEIK
With B3 the Kd [1] was 1100 nM, the Kd (RaTG13 [3]) was 1200 nM and the Kd [6] was 1100 nM. It also gave a Kd (RaTG13 [8]) of 1200 nM.

B4: Ab16 Fab (Fab, V domains shown)
VH: EVQLQQSGPELVKPGASVKISCKASGYSFNNYYMNWVKQSPEKSLEWIGEINPNSGYTSYNQKFRAKATLTVDKSSTTAYMQLKSLTSEDSAVYYCARYFGNLFAMDFWGQGTSVTVS
VL: DILMTQSPSSMSVSLGDTVSITCHASQGIGSNIGWLQQKPGKSFKGLIYLGTNLEDGVPSRFSGSGSGADYSLTISSLESEDFADYYCVQYVQFPYTFGGGTKLEIK
Work on B4 yielded a Kd [1] of 30 nM, a Kd [2] of 100 nM and a Kd (RaTG13 [3]) of 200 nM. The Kd [4] was 210 nM and the Kd (SHC014 [5]) was 90 nM.

B5: Ab17 Fab (Fab, V domains shown)
VH: EVQLQQSGPELVKPGASVKISCKASGYSFTDYYMNWVKQSPEKSLEWIGEINPNTGGTTYNQKFKAKATLTVDKSSSTAYMQLKSLTSEDSAVYYCARYYGNLYAMDYWGQGTSVTVSS
VL: DILMTQSPSSMSVSLGDTVSITCHASQGISSNIGWLQQKPGKSFKGLIYHGTNLEDGVPSRFSGSGSGADYSLTISSLESEDFADYYCVQYVQFPYTLGGGTKLEIK
With B5 the Kd [1] was 70 nM, the Kd [2] was 80 nM and the Kd (RaTG13 [3]) was 180 nM. For the same binder, the Kd [4] was 370 nM and the Kd (SHC014 [5]) was 90 nM.
